Measurements from US11161912B2, “Heparanase-neutralizing monoclonal antibodies” (Technion Research & Development Foundation Limited, priority 2015, dated 2021).

Target: T1, recombinant active heparanase (Homo sapiens, UniProt Q9Y251, DEL111-157/INS109GSGSG)
T1 sequence (Q9Y251 with tags, fused parts or gaps INS109GSGSG/DEL111-157): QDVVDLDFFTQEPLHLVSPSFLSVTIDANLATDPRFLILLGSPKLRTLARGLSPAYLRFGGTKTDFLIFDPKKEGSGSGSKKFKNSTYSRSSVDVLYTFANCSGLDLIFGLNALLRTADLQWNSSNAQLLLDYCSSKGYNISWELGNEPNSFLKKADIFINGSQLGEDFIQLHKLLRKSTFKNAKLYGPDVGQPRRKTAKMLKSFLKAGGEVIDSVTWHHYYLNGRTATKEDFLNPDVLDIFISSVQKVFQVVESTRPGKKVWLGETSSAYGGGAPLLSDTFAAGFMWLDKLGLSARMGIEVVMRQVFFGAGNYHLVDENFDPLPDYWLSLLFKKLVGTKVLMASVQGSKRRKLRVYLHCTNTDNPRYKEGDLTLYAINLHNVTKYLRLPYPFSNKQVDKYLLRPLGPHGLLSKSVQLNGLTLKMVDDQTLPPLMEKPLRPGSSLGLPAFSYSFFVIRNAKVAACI
Assay: Heparanase enzymatic activity on 35S-labelled ECM, enzyme pre-incubated with antibody
Type: biochemical
Conditions: antibody 2 μg/ml, heparanase 200 ng, pre-incubated 2 h on ice
Method: Cell lysates, heparanase activity and protein blotting. Preparation of cell lysates, protein blotting, and measurement of heparanase enzymatic activity were carried out as described (Vlodaysky I, et al. 1999, Nature Med 5(7):793-802; Arvatz et at, 2011, FASEB J 24(12):4969-4976). […] Likewise, cell lysates or tumor extracts were incubated (12 h, 37° C., pH 6.0) with the labeled ECM and sulfate labeled degradation fragments released into the incubation medium were analyzed by gel filtration on a Sepharose CL-6B column. Degradation fragments of HS side chains are eluted from Sepharose 6B at 0.5<Kav<0.8 (peak II, fractions 17-30). Nearly intact sulfate labeled HSPGs are eluted just after the void volume (Kav<0.2, peak I, fractions 1-10). […]
FIG. 2A. […] The mixture was then applied onto dishes coated with ^35S-labeled ECM and heparanase enzymatic activity was determined as described under “Materials and Methods”. […] Blood vessels density was quantified by counting the number of CD31-positive vessels per field and is presented graphically at the right second panel. At least 25 fields of each treatment were counted. […]
FIG. 3A. […] The mixture was then applied onto ^35S-labeled ECM-coated dishes and heparanase activity was determined as described above (lower panel). […] Quantification of the extent of CD45 staining is shown graphically in the lower panel. […]

B1: mAb 9E8: monoclonal IgM raised against KKDC peptide (Lys158-Asn171) of heparanase; VH SEQ ID NO: 7, VL SEQ ID NO: 8 (antibody)
VH: EVKLLESGGGLVQPGGSLKLSCAASGFDFSRYWMSWVRQAPGKGLEWIGEINPDSSTINYTPSLKDKFIISRDNAKNTLYLQMSKVRSEDTALYYCARRGYEGNYAMDYWGQGTSVTVSSESQSFPNVFPLVSCESPLSDKNLVAMGCLAR
VL: DIVMTQAAPSVPVTPGESVSISCRSSKSLLHSNGNTYLYWFLQRPGQSPQLLIYRMSNLASGVPDRFSGSGSGTAFTLRISRVEAEDVGVYYCMQHLEYPFTFGSGTKLEIKRADAAPTVSIFPPSSEQLTSGGASVVCFL
modifications: IgM constant regions
- neutralization of heparanase enzymatic activity: neutralizes heparanase enzymatic activity to magnitude comparable with the polyclonal antibody #1453
